Assay [1] has as its target caspase-like site (β1 subunit) of 26S proteasomes purified from rabbit muscle (rabbit). As to the kind of experiment: cell-based or functional assay.
The target of assay [2] is proteasome β5 subunit (chymotrypsin-like site) in human cells and cell extracts (human) (UniProt P28074). As to the kind of experiment: competition with activity-based probe in living HEK-293 cells, 4 h; Chym-L site.
The target in assay [3] is proteasome β2 subunit (trypsin-like site) in human cells and cell extracts (human) (UniProt Q99436). The assay is described as follows: competition with activity-based probe in living HEK-293 cells, 4 h; Tr-L site.
For assay [4], the target named is chymotrypsin-like site (β5 subunit) of 26S proteasomes purified from rabbit muscle (rabbit) (UniProt G1T4Q9). The assay is described as follows: cell-based or functional assay.
For assay [5], the target named is proteasome β2 subunit (trypsin-like site) in human cells and cell extracts (human) (UniProt Q99436). As to the kind of experiment: cell-based or functional assay.
The target in assay [6] is proteasome β5 subunit (chymotrypsin-like site) in human cells and cell extracts (human) (UniProt P28074). As to the kind of experiment: cell-based or functional assay.
In assay [7] the target is trypsin-like site (β2 subunit) of 26S proteasomes purified from rabbit muscle (rabbit) (UniProt G1SWK8). As to the kind of experiment: cell-based or functional assay.
For assay [8], the target named is proteasome β1 subunit (caspase-like site) in human cells and cell extracts (human) (UniProt P28072). The assay is described as follows: cell-based or functional assay.

Where only a bound is given, the exact number is not on record here.

Sequence of proteasome β2 subunit (trypsin-like site) in human cells and cell extracts (human) (Q99436 44-277): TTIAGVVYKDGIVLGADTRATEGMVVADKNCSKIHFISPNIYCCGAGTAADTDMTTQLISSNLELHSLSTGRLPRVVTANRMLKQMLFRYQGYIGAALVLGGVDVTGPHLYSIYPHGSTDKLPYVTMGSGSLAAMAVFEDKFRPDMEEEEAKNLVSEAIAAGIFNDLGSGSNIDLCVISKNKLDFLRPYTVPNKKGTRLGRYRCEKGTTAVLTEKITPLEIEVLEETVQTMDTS
Sequence of proteasome β5 subunit (chymotrypsin-like site) in human cells and cell extracts (human) (P28074 60-263): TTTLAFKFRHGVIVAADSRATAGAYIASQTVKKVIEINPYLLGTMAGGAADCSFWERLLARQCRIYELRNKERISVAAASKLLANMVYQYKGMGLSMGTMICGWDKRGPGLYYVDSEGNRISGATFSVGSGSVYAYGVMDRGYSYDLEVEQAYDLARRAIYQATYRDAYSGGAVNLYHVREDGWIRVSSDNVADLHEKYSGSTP
Sequence of proteasome β1 subunit (caspase-like site) in human cells and cell extracts (human) (P28072 35-239): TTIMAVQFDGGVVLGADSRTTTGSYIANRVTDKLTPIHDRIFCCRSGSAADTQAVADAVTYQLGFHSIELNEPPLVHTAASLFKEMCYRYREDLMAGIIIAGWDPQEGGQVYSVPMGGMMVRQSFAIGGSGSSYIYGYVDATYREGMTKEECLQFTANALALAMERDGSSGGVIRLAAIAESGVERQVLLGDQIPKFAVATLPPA
Sequence of chymotrypsin-like site (β5 subunit) of 26S proteasomes purified from rabbit muscle (rabbit) (G1T4Q9 entry or part of it): as the sequence (P28074 60-263) above, with E197D counted along it
Sequence of trypsin-like site (β2 subunit) of 26S proteasomes purified from rabbit muscle (rabbit) (G1SWK8 entry or part of it): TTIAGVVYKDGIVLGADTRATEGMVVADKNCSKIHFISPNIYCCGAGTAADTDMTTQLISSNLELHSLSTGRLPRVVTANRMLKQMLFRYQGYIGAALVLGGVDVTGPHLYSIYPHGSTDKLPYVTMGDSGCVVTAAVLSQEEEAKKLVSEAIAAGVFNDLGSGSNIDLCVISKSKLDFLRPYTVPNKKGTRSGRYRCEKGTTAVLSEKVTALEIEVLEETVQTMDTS

Turning to “N3-Phe-Ala(4-pyridine)-Leu-Phe(4-CH2NH2-TFA)-VS (50) (peptide)”, the IC50 (µM) for sites: Casp-L in assay [1] was 30 µM.

In the case of “N3-Phe-Phe(4-NH2.TFA)-Leu-Phe(4-CH2NH2.TFA)-VS (51) (peptide)”, the IC50 in assay [2] was over 50 µM. The same substance had an IC50 in assay [3] of 10 µM. In assay [1], this substance returned an IC50 (µM) for sites: Casp-L of 30 µM. Also, the IC50 (µM) for sites: Chym-L in assay [4] was 3.4 µM. In assay [5], this substance came in with an IC50 (µM) for sites: Tr-L; NCI-H929 cells, 6 h, PROTEASOMEGLO of 0.11 µM and an IC50 (µM) for sites: Tr-L; RPMI-8226 cells, 6 h, PROTEASOMEGLO of 0.58 µM. In assay [6], this substance registered an IC50 (µM) for sites: Chym-L; NCI-H929 cells, 6 h, PROTEASOMEGLO of 3.6 µM and an IC50 (µM) for sites: Chym-L; RPMI-8226 cells, 6 h, PROTEASOMEGLO of 7.2 µM. In assay [7], this substance showed an IC50 (µM) for sites: Tr-L of 0.03 µM. In assay [8], this substance showed an IC50 (µM) for sites: Casp-L; NCI-H929 cells, 6 h, PROTEASOMEGLO of 22 µM and an IC50 (µM) for sites: Casp-L; RPMI-8226 cells, 6 h, PROTEASOMEGLO of over 30 µM.

Regarding NC-022 (HMB-Val-Ser-Arg-ek) (peptide), in assay [5], the IC50 (µM) for sites: Tr-L; NCI-H929 cells, 6 h, PROTEASOMEGLO was determined as 0.9 µM; the IC50 (µM) for sites: Tr-L; RPMI-8226 cells, 6 h, PROTEASOMEGLO came out at 24 µM; the inhibition of the trypsin-like sites at 3 µM NC-022 within 4-6 hours, NCI-H929 cells was 90%; the inhibition of trypsin-like activity 5 hours after NC-022 addition, NCI-H929 and KMS-12-BM cells was over 90%. Also, in assay [5], the inhibition of trypsin-like activity after a 6-hour incubation, MM cell lines is over 90%.

Regarding carfilzomib (peptide), in assay [5], the Inhibition of active sites (% control): Trypsin-like sites, 1 h; KMS-12-BM, 11 nM carfilzomib is -3%; the Inhibition of active sites (% control): Trypsin-like sites, 1 h; KMS-12-BM, 33 nM carfilzomib was found to be 0%; the Inhibition of active sites (% control): Trypsin-like sites, 1 h; KMS-12-BM, 100 nM carfilzomib came out at 18%; the Inhibition of active sites (% control): Trypsin-like sites, 1 h; KMS-12-BM, 300 nM carfilzomib came out at 49%. In addition, in assay [5], the Inhibition of active sites (% control): Trypsin-like sites, 1 h; KMS-12-BM, 900 nM carfilzomib amounted to 75%; the Inhibition of active sites (% control): Trypsin-like sites, 1 h; NCI-H929, 3.7 nM carfilzomib is -7%; the Inhibition of active sites (% control): Trypsin-like sites, 1 h; NCI-H929, 11 nM carfilzomib was 0%; the Inhibition of active sites (% control): Trypsin-like sites, 1 h; NCI-H929, 33 nM carfilzomib came out at 17%. In assay [5], this substance yielded an Inhibition of active sites (% control): Trypsin-like sites, 6 h -NC-022; KMS-12-BM, 11 nM carfilzomib of 5%; an Inhibition of active sites (% control): Trypsin-like sites, 6 h -NC-022; KMS-12-BM, 33 nM carfilzomib of 45%; an Inhibition of active sites (% control): Trypsin-like sites, 6 h -NC-022; KMS-12-BM, 100 nM carfilzomib of 62%; an Inhibition of active sites (% control): Trypsin-like sites, 6 h -NC-022; KMS-12-BM, 300 nM carfilzomib of 69%. For the same substance, in assay [5], the Inhibition of active sites (% control): Trypsin-like sites, 6 h -NC-022; KMS-12-BM, 900 nM carfilzomib was determined as 72%; the Inhibition of active sites (% control): Trypsin-like sites, 6 h -NC-022; NCI-H929, 3.7 nM carfilzomib stood at 3%; the Inhibition of active sites (% control): Trypsin-like sites, 6 h -NC-022; NCI-H929, 11 nM carfilzomib stood at 39%; the Inhibition of active sites (% control): Trypsin-like sites, 6 h -NC-022; NCI-H929, 33 nM carfilzomib is 46%. In addition, in assay [6], the Inhibition of active sites (% control): Chymotrypsin-like sites, 1 h; KMS-12-BM, 11 nM carfilzomib is 75%; the Inhibition of active sites (% control): Chymotrypsin-like sites, 1 h; KMS-12-BM, 33 nM carfilzomib amounted to 90%; the Inhibition of active sites (% control): Chymotrypsin-like sites, 1 h; KMS-12-BM, 100 nM carfilzomib is 95%; the Inhibition of active sites (% control): Chymotrypsin-like sites, 1 h; KMS-12-BM, 300 nM carfilzomib came out at 97%. Besides, in assay [6], the Inhibition of active sites (% control): Chymotrypsin-like sites, 1 h; KMS-12-BM, 900 nM carfilzomib was 98%; the Inhibition of active sites (% control): Chymotrypsin-like sites, 1 h; NCI-H929, 3.7 nM carfilzomib came out at 14%; the Inhibition of active sites (% control): Chymotrypsin-like sites, 1 h; NCI-H929, 11 nM carfilzomib came to 39%; the Inhibition of active sites (% control): Chymotrypsin-like sites, 1 h; NCI-H929, 33 nM carfilzomib was found to be 75%. In assay [6], this substance yielded an Inhibition of active sites (% control): Chymotrypsin-like sites, 6 h -NC-022; KMS-12-BM, 11 nM carfilzomib of 67%; an Inhibition of active sites (% control): Chymotrypsin-like sites, 6 h -NC-022; KMS-12-BM, 33 nM carfilzomib of 97%; an Inhibition of active sites (% control): Chymotrypsin-like sites, 6 h -NC-022; KMS-12-BM, 100 nM carfilzomib of 97%; an Inhibition of active sites (% control): Chymotrypsin-like sites, 6 h -NC-022; KMS-12-BM, 300 nM carfilzomib of 97%. In assay [6], this substance showed an Inhibition of active sites (% control): Chymotrypsin-like sites, 6 h -NC-022; KMS-12-BM, 900 nM carfilzomib of 97%; an Inhibition of active sites (% control): Chymotrypsin-like sites, 6 h -NC-022; NCI-H929, 3.7 nM carfilzomib of 65.5%; an Inhibition of active sites (% control): Chymotrypsin-like sites, 6 h -NC-022; NCI-H929, 11 nM carfilzomib of 89%; an Inhibition of active sites (% control): Chymotrypsin-like sites, 6 h -NC-022; NCI-H929, 33 nM carfilzomib of 95%.

For the origin of these results see patent US20130102527A1.
